The binders below were run against T1, human HER-2 extracellular domain (HER-2 ECD) (human, UniProt P04626 23-646) (assay: competitive Fab-phage ELISA).
T1 construct: range 23-646; also called erbB2; HER2 protein

| IC50 [nM] | Binder |
| --- | --- |
| 0.93 | B18 (Fab, V domains shown) VH: EVQLVESGGGLVQPGGSLRLSCAASGFSISSSYIHWVRQAPGKGLEWVASIYPYSGYTSYADSVKGRFTISADTSKNTAYLQMNSLRAEDTAVYYCARWWSSAFDYWGQGTLVTVSS VL: DIQMTQSPSSLSASVGDRVTITCRASQDVNTAVAWYQQKPGKAPKLLIYSASSLYSGVPSRFSGSRSGTDFTLTISSLQPEDFATYYCQQYYYSPSTFGQGTKVEIK |
| 5.76 | B17 (Fab, V domains shown) VH: EVQLVESGGGLVQPGGSLRLSCAASGFYIYSSYIHWVRQAPGKGLEWVASIYPYSGYTSYADSVKGRFTISADTSKNTAYLQMNSLRAEDTAVYYCARWWSSGFDYWGQGTLVTVSS VL: DIQMTQSPSSLSASVGDRVTITCRASQDVNTAVAWYQQKPGKAPKLLIYSASSLYSGVPSRFSGSRSGTDFTLTISSLQPEDFATYYCQQSYYYPSTFGQGTKVEIK |
| 2.72 | B22 (Fab, V domains shown) VH: EVQLVESGGGLVQPGGSLRLSCAASGFSISSSYIHWVRQAPGKGLEWVASIYPYSGYTSYADSVKGRFTISADTSKNTAYLQMNSLRAEDTAVYYCARWWSSAMDYWGQGTLVTVSS VL: DIQMTQSPSSLSASVGDRVTITCRASQDVNTAVAWYQQKPGKAPKLLIYSASSLYSGVPSRFSGSRSGTDFTLTISSLQPEDFATYYCQQSYYYPSTFGQGTKVEIK |
| 1.64 | B21 (Fab, V domains shown) VH: EVQLVESGGGLVQPGGSLRLSCAASGFSIYSSYIHWVRQAPGKGLEWVASIYPYSGYTSYADSVKGRFTISADTSKNTAYLQMNSLRAEDTAVYYCARWSSSGFDYWGQGTLVTVSS VL: DIQMTQSPSSLSASVGDRVTITCRASQDVNTAVAWYQQKPGKAPKLLIYSASSLYSGVPSRFSGSRSGTDFTLTISSLQPEDFATYYCQQYYYSPSTFGQGTKVEIK |
| 1.56 | B20 (Fab, V domains shown) VH: EVQLVESGGGLVQPGGSLRLSCAASGFSISSSYIHWVRQAPGKGLEWVASIYPYSGYTSYADSVKGRFTISADTSKNTAYLQMNSLRAEDTAVYYCARWWSSALDYWGQGTLVTVSS VL: DIQMTQSPSSLSASVGDRVTITCRASQDVNTAVAWYQQKPGKAPKLLIYSASSLYSGVPSRFSGSRSGTDFTLTISSLQPEDFATYYCQQSYYSPSTFGQGTKVEIK |

Second part, the binder before the results:

| Binder | IC50 [nM] |
| --- | --- |
| B9 (Fab, V domains shown) VH: EVQLVESGGGLVQPGGSLRLSCAASGFSIYYSYIHWVRQAPGKGLEWVASIYPSSGYTSYADSVKGRFTISADTSKNTAYLQMNSLRAEDTAVYYCARWWSSAFDYWGQGTLVTVSS VL: DIQMTQSPSSLSASVGDRVTITCRASQDVNTAVAWYQQKPGKAPKLLIYSASSLYSGVPSRFSGSRSGTDFTLTISSLQPEDFATYYCQQSYYSPSTFGQGTKVEIK | 0.72 |
| B15 (Fab, V domains shown) VH: EVQLVESGGGLVQPGGSLRLSCAASGFSISSSYIHWVRQAPGKGLEWVASIYPYSGYTSYADSVKGRFTISADTSKNTAYLQMNSLRAEDTAVYYCARWWSSALDYWGQGTLVTVSS VL: DIQMTQSPSSLSASVGDRVTITCRASQDVNTAVAWYQQKPGKAPKLLIYSASSLYSGVPSRFSGSRSGTDFTLTISSLQPEDFATYYCQQSYYSPSTFGQGTKVEIK | 1.75 |
| B14 (Fab, V domains shown) VH: EVQLVESGGGLVQPGGSLRLSCAASGFSIYYSYIHWVRQAPGKGLEWVASIYPSSGYTSYADSVKGRFTISADTSKNTAYLQMNSLRAEDTAVYYCARWWSSAFDYWGQGTLVTVSS VL: DIQMTQSPSSLSASVGDRVTITCRASQDVNTAVAWYQQKPGKAPKLLIYSASSLYSGVPSRFSGSRSGTDFTLTISSLQPEDFATYYCQQYYYYPYTFGQGTKVEIK | 1.36 |
| B13 (Fab, V domains shown) VH: EVQLVESGGGLVQPGGSLRLSCAASGFSIYYSYIHWVRQAPGKGLEWVASIYPSSGYTSYADSVKGRFTISADTSKNTAYLQMNSLRAEDTAVYYCARWWSSAFDYWGQGTLVTVSS VL: DIQMTQSPSSLSASVGDRVTITCRASQDVNTAVAWYQQKPGKAPKLLIYSASSLYSGVPSRFSGSRSGTDFTLTISSLQPEDFATYYCQQSYYYPSTFGQGTKVEIK | 1.1 |
| B1 (Fab, V domains shown) VH: EVQLVESGGGLVQPGGSLRLSCAASGFYISSSYIHWVRQAPGKGLEWVASIYPYSGYTSYADSVKGRFTISADTSKNTAYLQMNSLRAEDTAVYYCARYYSYAFDYWGQGTLVTVSS VL: DIQMTQSPSSLSASVGDRVTITCRASQDVNTAVAWYQQKPGKAPKLLIYSASSLYSGVPSRFSGSRSGTDFTLTISSLQPEDFATYYCQQSYYSPSTFGQGTKVEIK | 6.28 |
| B16 (Fab, V domains shown) VH: EVQLVESGGGLVQPGGSLRLSCAASGFSISYSYIHWVRQAPGKGLEWVASIYPYSGYTSYADSVKGRFTISADTSKNTAYLQMNSLRAEDTAVYYCARWWSSAFDYWGQGTLVTVSS VL: DIQMTQSPSSLSASVGDRVTITCRASQDVNTAVAWYQQKPGKAPKLLIYSASSLYSGVPSRFSGSRSGTDFTLTISSLQPEDFATYYCQQYYYYPSTFGQGTKVEIK | 1.77 |
| B12 (Fab, V domains shown) VH: EVQLVESGGGLVQPGGSLRLSCAASGFSISYSYIHWVRQAPGKGLEWVASIYPYSGYTSYADSVKGRFTISADTSKNTAYLQMNSLRAEDTAVYYCARWWSWAFDYWGQGTLVTVSS VL: DIQMTQSPSSLSASVGDRVTITCRASQDVNTAVAWYQQKPGKAPKLLIYSASSLYSGVPSRFSGSRSGTDFTLTISSLQPEDFATYYCQQYYYSPSTFGQGTKVEIK | 6.66 |
| B10 (Fab, V domains shown) VH: EVQLVESGGGLVQPGGSLRLSCAASGFSIYYSYIHWVRQAPGKGLEWVASIYPSSGYTSYADSVKGRFTISADTSKNTAYLQMNSLRAEDTAVYYCARWWSSGFDYWGQGTLVTVSS VL: DIQMTQSPSSLSASVGDRVTITCRASQDVNTAVAWYQQKPGKAPKLLIYSASSLYSGVPSRFSGSRSGTDFTLTISSLQPEDFATYYCQQSYYSPSTFGQGTKVEIK | 3.76 |

Molecular target: T1, human HER-2 extracellular domain (HER-2 …)
Test: competitive Fab-phage ELISA
Remark: another data set of the same source

| IC50 [nM] | Binder |
| --- | --- |
| 6.8 | G59 (Fab, V domains shown) VH: EVQLVESGGGLVQPGGSLRLSCAASGFYISSSSIHWVRQAPGKGLEWVAYISPSSGYTYYADSVKGRFTISADTSKNTAYLQMNSLRAEDTAVYYCARYYSSYYSYYSYALDYWGQGTLVTVSS VL: DIQMTQSPSSLSASVGDRVTITCRASQDVNTAVAWYQQKPGKAPKLLIYSASSLYSGVPSRFSGSRSGTDFTLTISSLQPEDFATYYCQQSYSYPYTFGQGTKVEIK |
| 79.8 | G60 (Fab, V domains shown) VH: EVQLVESGGGLVQPGGSLRLSCAASGFSIYYSSIHWVRQAPGKGLEWVASIYPYSGSTYYADSVKGRFTISADTSKNTAYLQMNSLRAEDTAVYYCARYYSSYSSSSSYYYYAFDYWGQGTLVTVSS VL: DIQMTQSPSSLSASVGDRVTITCRASQDVNTAVAWYQQKPGKAPKLLIYSASSLYSGVPSRFSGSRSGTDFTLTISSLQPEDFATYYCQQYYSSPYTFGQGTKVEIK |
| 51 | G41 (Fab, V domains shown) VH: EVQLVESGGGLVQPGGSLRLSCAASGFWIWSSSIHWVRQAPGKGLEWVAWISPSSGSTWYADSVKGRFTISADTSKNTAYLQMNSLRAEDTAVYYCARSSWSSWSSALDYWGQGTLVTVSS VL: DIQMTQSPSSLSASVGDRVTITCRASQDVNTAVAWYQQKPGKAPKLLIYSASSLYSGVPSRFSGSRSGTDFTLTISSLQPEDFATYYCQQWSSWPSTFGQGTKVEIK |
| 145 | G61 (Fab, V domains shown) VH: EVQLVESGGGLVQPGGSLRLSCAASGFSIYYSSIHWVRQAPGKGLEWVASIYPSSGSTYYADSVKGRFTISADTSKNTAYLQMNSLRAEDTAVYYCARYYSSSSSYSSSYYYYAFDYWGQGTLVTVSS VL: DIQMTQSPSSLSASVGDRVTITCRASQDVNTAVAWYQQKPGKAPKLLIYSASSLYSGVPSRFSGSRSGTDFTLTISSLQPEDFATYYCQQYYSSPYTFGQGTKVEIK |
| 9.75 | G53 (Fab, V domains shown) VH: EVQLVESGGGLVQPGGSLRLSCAASGFSISSSYIHWVRQAPGKGLEWVASIYPYSGYTSYADSVKGRFTISADTSKNTAYLQMNSLRAEDTAVYYCARYYSSAFDYWGQGTLVTVSS VL: DIQMTQSPSSLSASVGDRVTITCRASQDVNTAVAWYQQKPGKAPKLLIYSASSLYSGVPSRFSGSRSGTDFTLTISSLQPEDFATYYCQQSYYYPSTFGQGTKVEIK |
| 43 | G42 (Fab, V domains shown) VH: EVQLVESGGGLVQPGGSLRLSCAASGFWIWSSSIHWVRQAPGKGLEWVAWISPSSGSTWYADSVKGRFTISADTSKNTAYLQMNSLRAEDTAVYYCARSSWSSWSSALDYWGQGTLVTVSS VL: DIQMTQSPSSLSASVGDRVTITCRASQDVNTAVAWYQQKPGKAPKLLIYSASSLYSGVPSRFSGSRSGTDFTLTISSLQPEDFATYYCQQWSSWPSTFGQGTKVEIK |
| 6.52 | G55 (Fab, V domains shown) VH: EVQLVESGGGLVQPGGSLRLSCAASGFSIYSSYIHWVRQAPGKGLEWVASIYPYSGYTSYADSVKGRFTISADTSKNTAYLQMNSLRAEDTAVYYCARYYSYAFDYWGQGTLVTVSS VL: DIQMTQSPSSLSASVGDRVTITCRASQDVNTAVAWYQQKPGKAPKLLIYSASSLYSGVPSRFSGSRSGTDFTLTISSLQPEDFATYYCQQSYYYPSTFGQGTKVEIK |
| 7.13 | G56 (Fab, V domains shown) VH: EVQLVESGGGLVQPGGSLRLSCAASGFYISSSYIHWVRQAPGKGLEWVASIYPYSGYTSYADSVKGRFTISADTSKNTAYLQMNSLRAEDTAVYYCARYYSYALDYWGQGTLVTVSS VL: DIQMTQSPSSLSASVGDRVTITCRASQDVNTAVAWYQQKPGKAPKLLIYSASSLYSGVPSRFSGSRSGTDFTLTISSLQPEDFATYYCQQSYYSPSTFGQGTKVEIK |
| 1.7 | G33 (Fab, V domains shown) VH: EVQLVESGGGLVQPGGSLRLSCAASGFSIWSSWIHWVRQAPGKGLEWVASISPSSGWTSYADSVKGRFTISADTSKNTAYLQMNSLRAEDTAVYYCARWWSSALDYWGQGTLVTVSS VL: DIQMTQSPSSLSASVGDRVTITCRASQDVNTAVAWYQQKPGKAPKLLIYSASSLYSGVPSRFSGSRSGTDFTLTISSLQPEDFATYYCQQWWWWPSTFGQGTKVEIK |

From patent publication US20070202552A1 (Genentech, published 2007)
